This series in a line: soluble on expression in E. coli; label from the status in PepcDB or PDB records.
As for “MEVHDSDAYKADEKEEEKAEEVELDDSDVESEEESEDEESDEDPEDGPAPRRFETFDDAKQFWAEHFEEELIPNEDLDLNCYLFNPNGEPVVPQPVKRAMNPRSLFNNQRPVQVYHQRWELLPNEEAEHWKEMWVQMRDEQREQIEEQLIEFRYSSKS”, the “soluble on expression in E. coli” value is “not soluble”.
The value for “DALNRFHDQPLNETELLALMGEMEGKISGGIHYDNVAPCYLGGVQLMLEELGIISQEVPCFDEWYWVMAYPGIKVSTAEAREILPSQYRRQDIIAHGRHLAGFIHACHSGQPELAAKMIKDVIAEPYREKLLPGFANARQ” was “not soluble”; that for “MPGLPEVAPGDDLAKLIAAVEPGLVDGDVLLVTSKIVSKAEGRIVRADDREAAIDAETVRVVARRGALRIVENRQGLVMAAAGVDASNTPSGTVLLLPEDPDASARAIRDGLRDTLGVDVGVVVTDTFGRPWRTGLTDVAIGAAGVRVLDDLRGGTDAYGNPLSATVVATADELAAAGDLVKGKAAGLPVAVVRGLPHVIAGDDEAGARAMVRGGRDDMFRLGTSEAVREAVTQRRTVRAFTDEPVDPGAVRRAVAAAVTAPAPHHTTPWRFVLLESAESRTRLLDAMRDAWIADLRGDRKTEESIAKRVRRGDVLRNAPYLVVPCMVMDGSHSYGDARRDAAEREMFVVATGAGVQNFLVALAGERLGSAWVSSTMFCRDVVRRALGLPESWEPMGAVAVGHAAEEPRDRPARDAGAFIEVRLEHHHHHH” was “soluble”.
The value for “MSLIRPQLDDIQTAQAQEKNLLNEFREKQSKLRNLQQYQHQLEEMRASFNQQLTQLPKESEIPGLVEDINMTGVNSGLKFKNIRLENEVKQEFFIEQPISIEATGDYHAFGAFVSGIAALPRIVTLHDFVIEAKQSKEKTDIPEVDYAVKAKTYRYIGVDEQGNASAVQANTSTTTPAQGGTPEGHHHHHH” was “soluble”.
Under “MNNSEGLKSFQQSLADLPQWVSERLLQQINQLTNYEPVIGIMGKTGVGKSSLCNALFAGDISPVSDVAACTREPLRFRLQVGDRYITLMDLPGVGESGARDTEYAALYREQLPRLDLVLWLIKADDRALTVDEHFYHQVIGEVYRHKVLFVISQSDKAEPTSGGGQLSTAQKQNISRKICLLHELFQPVHPVCAVSVRLQWGLKVMAERMIKCLPREATSPVVSQLHPSFRTTVVREQARSDFGETVGAVLDSISAFPLIPAPVRAVIQAVRTTVVSVARAVWDFFF” stands “soluble”; under “MSLKFVTIRDIAREAGVSINTVSRALNDKPDINVETKKKVLEVADRLGYIRDATAVSLRYGLTRVIGVILEDSSNPFYSEVLKGIEMAAKKKKFNVIFMNTERSYELENEAIKTMIGRRVDGMIISPTQEKCDDIKLLSEKGIPFVVLGVHFDELNVPEIYTDDEKGGYLATKHLIEIGRRRILFLNGFTYKSVAKMRLNGYRKALKEFGLEYDKSLVHEIEEGYENAYNKVKELLKKGIKFDSIFCFNDVFAIGAIGALKEEGIKVPQDIAVVGYDDIYFSKFISPSLTTVKIDKILEGKLAFEMLHGILTKKTGKNVKNVLDVELIVRESTIDKIGEGHHHHHH”, “soluble”; under “DAKEKRLREIQFEKEMIERDMREYRGFSRAVRAVFEEKERFPGLVDVVSNLIEVDEKYSLAVSVLLGGTAQNIVVRNVDTAKAIVEFLKQNEAGRVTILPLDLIDGSFNRISGLENERGFVGYAVDLVKFPSDLEVLGGFLFGNSVVVETLDDAIRMKKKYRLNTRIATLDGELISGRGAITGGREERSSNVFERRIKLKHLEQEMEETERQI”, “soluble”.
In the case of “MGSDKIHHHHHHMGVKTAAIKPQINRFFERIINMIIDRERVKNTFAEYTSGYNATDPKIKLKIDHTYRVAELCELIARNLKLDEYETDVAWLTGMLHDVGRFEQIKCYNTFNDALSVDHANFGADLLFKEGLIDTYVDGFHDDKYGTIVENAIRNHSAFRIDERLDEYTVMFCNILRDADKVDIFRVNVDTPAEDIYNVTTEELKNSQVSPEVMAAFDERHAVLRSCKKTVVDHVAGHIALTFELVYPISLQIANERGYLDKMMAFESDNEVTGKQFEEIRAKLNEYVASVKPL”, the “soluble on expression in E. coli” value is reported as “not soluble”.
Under “EDNSRYTHFLTQHYDAKPQGRDDRYCESIMRRRGLTSPCKDINTFIHGNKRSIKAICSQKNVACKNGQTNCYISKSSFQVTTCKLHGGSPWPPCQYRATAGFRNVVVACENGLPVHLDQSIFR” stands “soluble”; under “MYSEERRRQIASLTAVEGRVNVTELAARFDVTAETIRRDLAVLDREGVVHRVHGGAVANQTFQTAEFSLDTRSRSASGAKNSIAHAALSYLPEAQGGLFLDAGTTTAALAELLAAQPFAKHWSIVTNSLSIALTLANSGLDEIQLLGGSVRAITQAVVGDTALRTLALMRADVAFIGTNALTIDHGLSTADSQEAAIKSAMITNAHKVVVLCDSTKMGTDYLVSFGSISDIDVIITDANAPESFVKALRDRDVEVIIALEHHHHHH”, “soluble”.
The value for “MVREAKNLRARTKKISLHICRKHAPQSEDFRCVFLRQQVIDRDIEAMAKPYDFYIVWKLSYNHVFTIHPRHTILELPPVYPDTALVPFFIMRFSFFDHMISCEYIFHRKLFVCLHRKNKQKQKSNM” was “not soluble”; that for “GMNNRELYGNIRDVYHLLQKNLDKAIEQYDISYVQFGVIQVLAKSGKVSMSKLIENMGCVPSNMTTMIQRMKRDGYVMTEKNPNDQRETLVYLTKKGEETKKQVDVQYSDFLKENCGCFTKEEEGILEDLLLKWKKHLN” was “soluble”; that for “MGSDKIHHHHHHMNTLTDVEWNAFALPANLADGHAYHDMHVAFMEIMKNLERIWSEADKITPPRMALDFKNSFSRLIKSPSLMPHTHYKICPSASNSIDLIAAFLHGKNIRTVLVEPTFDNLALLLQRRGVTVDSVSEDNLTHHLVDGNFDSIPAIKTAEAVFIVSPNNPTGYTLSLQEFKTLVAYCKRTEKLLVVDNSFRFFNRQGYDDYQVLLESGVNFIAFEDTGKTWPTQDLKASLIIYSDTVKVFFESLYNEIYLCVSNFVLHLFSHLFDATSAVGLKSVLWDVVDSNRALLRETLQGSVLRISETSKEGLK” was “not soluble”.
The value for “MGSDKIHHHHHHMSNYRNPHQLIITADDYGMCPEVNRAIEECLAAGALRATCVMTNMPAYTDADRLSKDFPSASIGIHWTLTAGTPVAPLSEVPDLVAPNGQFWPAAEFRQRWLSRRISPTQVVIELQAQHARFVELIGQPAFWNTHQNVHVLPRLFPLVVDLAHRLGIPAMRSHRRITAPRHSSTLRYYLTHPIYWLKGQIIARWAAAAEKRGLRMPAGVVSTPGFGPGKVAIDQIIARIPWPRRLPAELVIHPATRVIPGLFGGLTESRLREFEVFRDPTLVERLAAMGVQPVGFEVL” was “not soluble”.
In the case of “MTNLFLCSLRFQFVVVCTRYDQSVGFSTEEHNIVEDASGFVTQHSSGSTLNESSRSCLQLVIVSQRNLEVYLGRDNVETLRKIGEANRGEFSKDFSVWCKTVFESMSNAYVSSLETEQSNVTSRVTRNIRPRTNEENRMQMEELQTAMQVERSVAASSSLSSSFDWNAFLRDRCGLSEEDVAYCLPKLSFIGMIDLSGVTTEFLLKCGIDSPSLRLRIMLGIRQLLAK”, the “soluble on expression in E. coli” value is listed as “not soluble”.
The value for “MSLATIYDVSVLAGVSLATVSRVMNKNTNVSEKTKKKVQDAMDQLGYRPSSIAQSLASNRSNSIGVLVSQLDGPFYGPMMTEIETALRDANKHVIIAAGHSNETQEKEAVEFLLDRGCDALILDVEALSDEYIINLCQQSTPIVLINRFISEIEERCIYLNNALGGYLATKHVLSQGHTQLAYIAGPQFKSDARERLEGHKQALAEFEVTFDETLFFEGNFREPSGVSAMEYLLKQDKQFTCVISANDQMASGAIAVSLERDISVPKQLSFIGYDNSPFPKYISPKLSTVSNPIQEMGKMAALWVLKNVYNKPDLSIVNTFTPQLILRDSVKEGHHHHHH” was “soluble”; that for “MGASMTGGQQMGAPITAYAQQTRGLLGCIITSLTGRDKNQVEGEVQIVSTATQTFLATCINGVCWTVYHGAGTRTIASPKGPVIQMYTNVDQDLVGWPAPQGSRSLTPCTCGSSDLYLVTRHADVIPVRRRGDSRGSLLSPRPISYLKGSSGGPLLCPAGHAVGLFRAAVCTRGVAKAVDFIPVENLETTMRSGSHHHHHH” was “soluble”; that for “MGSDKIHHHHHHMSDNDLQRRILDAVDAGFDAQLATTRDFVAIPSTRGAEGPCQDMIGDLLRQRGYEVDDWHIDLDDLKDLRGYGPIEHDFSKARTVVGTYRPSTNAGRSLILQGHCDVVPAGPLEMWDTPPFSPVIKQGRMYGRGACDMKSGTIGALYALDAIKAAGLRPTGRIHFQSVIEEESTGVGALSTLQRGYRADACFIPEPTGGKMVRSQVGVIWFRLKVRGYPVHVATAGTGSNAITAAYHLIDALGKLEEEWNRRAASDPHFKTLAHPINFNPGIIKGGDWASSVPAWCDVDCRIAILPGWSVADHQAEILACVSAAARDHRFLSNNPPQVEWSGFLSEGYELKNAAEPEAAFGKAYQAVYGSEVEDLVFTALTDTRFYGLNYNIPSLCFGASGEAMHGFNEYIDLESLRQSTKATALFIAEWCGVEPA” was “not soluble”.
For the sequence “AQVSNGSNSGQMEEINTKEVAQRITTELKRYSIPQAIFAQRVLCRSQGTLSDLLRNPKPWSKLKSGRETFRRMWKWLQEPEFQRMSALRLAACKRKEQEHGKDRGNT”, the “soluble on expression in E. coli” value is “soluble”.
For “GSNKLHLRVVTLIEHPFVFTREVDDEGLCPAGQLCLDPMTNDSSMLDRLFSSLHSSNDTVPIKFKKCCYGYCIDLLEQLAEDMNFDFDLYIVGDGKYGAWKNGHWTGLVGDLLSGTANMAVTSFSINTARSQVIDFTSPFFSTSLGILVRTRGTELSGIHDPKLHHPSQGFRFGTVRESSAEDYVRQSFPEMHEYMRRYNVPATPDGVQYLKNDPEKLDAFIMDKALLDYEVSIDADCKLLTVGKPFAIEGYGIGLPPNSPLTSNISELISQYKSHGFMDVLHDKWYKVVPCGK”, the “soluble on expression in E. coli” value is given as “soluble”.
On to “MAHHHHHHMWSPSNKRDSLINSDDTFFPFLFHFPGSHPRQMLSSFFASRSRGSWIPAVDISEQDDGYILVADLPEVKKEDLRVYTESSSIICISGNRKHILKQDEHQLLVAERGAGRFERCFDLPTSVDSSKIKASFNDQQLNLSIPKLRNSKSGASNSVTID”, for which the “soluble on expression in E. coli” value is “soluble”.
Regarding “MLDVPHGKFGFTKGCIIAVILLSLSRTLNRGQLNLERFEFWQPTSQLLALDVCLRDAFALEHHHHHH”, the “soluble on expression in E. coli” value was “not soluble”.
The value for “MSLRAGTEETERGHTALTVEGIGRRRGSEERETPERGDKEEGKEQVKRETAGGTRSSSPQKQRGKSTTRRLSVAGLSSERTQSNFEIHRELEDQTDDAMSGAGGIDCSMSGTTATVVLHIHALKKLFVAHVGDSRAVIARREHASSRAVAGGSDGFRQETRNDSRMLQQQTSSEPRETAEDRGCRSAGTGTDCRPLSRLMAFDLTNDHKPTNEIEKQRIMKAGGQVRRLEGDVPHRVFLKNRLFPGLAMSRAIGDTIATQAGVIPDPEVRGYQQSQSDEGHHHHHH” was “soluble”.
In the case of “MGSDKIHHHHHHMEELREAFEEGKPVILIDRNRENEADFVFPAQLITEDVVSFFVTYGKGLFCVTADEEDLLKRGFVKLSSNYGANYFVPVDWGTGTGISALERAETCRKLAEGRYFHEFRYPGHVTVIGGIGFQRRKGHTEASLEISELAGFSRHAVIVEILDEKGNSHNLDYVLKLSEKFSLPVLEMDDVWREFVKRKLLMKKKAEATLPTDFGVFKVVSFENHLDGKEHFAIVKEPLEDPVAVRIHSECVTGDVLSSLRCDCGSQLANFLRYMSAHGGILIYLRQEGRGIGLSNKIAAYSLQDKGLDTVEANRVLGFSEDERDYAPAAQILKALGIERVLLFTNNQRKTVGLEKYGIEVVETKRLYGRVTPHNRFYLSTKMKKLGHELEEIFREVNS”, the “soluble on expression in E. coli” value was “not soluble”.

These data come from the DeepSol protein solubility set.
